We go through one protein from paper PMC9178793, “A Direct Assay for Measuring the Activity and Inhibition of Coactivator-Associated Arginine Methyltransferase 1” (Biochemistry, 2022).

Substrate in data set [1]: CSCC[C@H](NC(=O)[C@@H](NC(=O)[C@H](CO)NC(=O)[C@H](Cc1ccccc1)NC(=O)[C@@H]1CCCN1C(=O)[C@@H]1CCCN1C(=O)[C@H](CCCNC(=N)N)NC(=O)[C@@H]1CCCN1C(=O)[C@H](C)NC(=O)[C@H](C)NC(=O)[C@@H]1CCCN1C(C)=O)[C@@H](C)O)C(N)=O
Nature of the data set: kinetic analysis of CARM1 substrates (KM determination, MRM LC-MS enzymatic activity assay). The format is biochemical, Mus musculus. The following applies: other: fixed 100 μM AdoMet, PABP1 456–466 0.05–100 μM. The source says:
(§1) The Mus musculus CARM1 (mmCARM1) gene sequence corresponding to the PRMT core (residues 130–497, mmCARM1_130–497) were amplified by PCR from the original GST-CARM1 construct.[19] The sequences were cloned in the pDONR207 (Invitrogen) vector using a BP reaction (Gateway Cloning, Life Technologies). The positive clones were confirmed by sequencing (GATC). The sequences were subcloned in a pDEST20 vector using an LR reaction. The resulting recombinant protein is harboring an amino-terminal glutathione S-transferase (GST) tag followed by a Tobacco etch virus (TEV) protease cleavage site. DH10Bac competent cells containing the baculovirus genome were transformed with the pDEST20-CARM1 plasmids and plated onto LB agar media containing 15 mg·mL^–1 tetracycline, 7 mg·mL^–1 gentamicin, 50 mg·mL^–1 kanamycin, 25 mg·mL^–1 X-Gal, and 40 mg·mL^–1 IPTG. Bacmid DNA purified from recombination-positive white colonies was transfected into Sf9 cells using the Lipofectin reagent (Invitrogen). Viruses were harvested 10 days after transfection. […]
(§2) Enzyme activity assays were performed with CARM1 (286 nM corresponding to 11.68 ng/μL) in 20 mM Tris buffer (pH 8) containing 50 mM Tris NaCl, 1 mM EDTA, 3 mM MgCl2, 0.1 mg/mL BSA, and 1 mM dithiothreitol (DTT). […] The supernatant (60 μL) was transferred to a new 96-well plate and analyzed. […]

Substrate in data set [2]: C[S+](CC[C@H](N)C(=O)[O-])C[C@H]1O[C@@H](n2cnc3c(N)ncnc32)[C@H](O)[C@@H]1O
The description is as above. The following applies: other: fixed 100 μM PABP1, AdoMet 0.05–100 μM. It counts as biochemical, Mus musculus.
Text: as §1, §2

B1: CARM1 (Mus musculus) (protein)
chain: GHTLERSVFSERTEESSAVQYFQFYGYLSQQQNMMQDYVRTGTYQRAILQNHTDFKDKIVLDVGCGSGILSFFAAQAGARKIYAVEASTMAQHAEVLVKSNNLTDRIVVIPGKVEEVSLPEQVDIIISEPMGYMLFNERMLESYLHAKKYLKPSGNMFPTIGDVHLAPFTDEQLYMEQFTKANFWYQPSFHGVDLSALRGAAVDEYFRQPVVDTFDIRILMAKSVKYTVNFLEAKEGDLHRIEIPFKFHMLHSGLVHGLAFWFDVAFIGSIMTVWLSTAPTEPLTHWYQVRCLFQSPLFAKAGDTLSGTCLLIANKRQSYDISIVAQVDQTGSKSSNLLDLKNPFFRYTGTTPSPPPGSHYTSPSENM
notes: corresponding to the PRMT core (residues 130–497, mmCARM1_130–497) were amplified by PCR; GST (followed by TEV protease cleavage site) (N, cleaved yes); made in house; host or cells: Sf9 insect cells (baculovirus)
As usually defined, the Km is the substrate concentration at which the rate is half of its maximum. For the protein B1, the Km in data set [1] came out at 12.03 ± 2.28 µM; in data set [2], 5.46 ± 0.01 µM.
